The supplement of paper PMC9170038

System: MS2 coat protein
Experiment: apparent KD of MS2 coat protein; designed switch direction (-1 OFF switch, 1 ON switch): -1; higher = weaker reporter binding
Outline: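 Stalled E. coli RNA polymerase transcribed designed RNA switches on Illumina chips, which were then titrated with SNAP-549-labelled MS2 coat protein, doubling from 0.7 or 1.5 nM to 3 µM. Steps lasted from 0.8–1.5 h at the lowest concentration to 10–20 min at the highest. The apparent KD is each design's median over clusters of curve-fitted normalised fluorescence.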

[1] = Eterna round: R95, input ligand: microRNA oligo, concentration not stated
[2] = input ligand: microRNA oligo, concentration not stated
[3] = Eterna round: R95, input ligand: FMN 200 uM
[4] = Eterna round: R95, input ligand: none

Row | Sequence | apparent KD of MS2 coat protein [1] | apparent KD of MS2 coat protein (input ligand: FMN 200 uM) | apparent KD of MS2 coat protein (input ligand: none) | further results
1 | UUUAUGUCAGGAUAUGAUUAGAUCUACUUUUGUAGAUCUAAUCAGAAGGGACAUGAGGAUCACCCAUGUUUUUU [Ex4 - 3 - 15] (puzzle: Exclusion 4) | 41.2 nM |  |  | 
2 | UUUAUUUUGCAAGGAUAUGUUUAAUUUUAGUUUCCUUACACAUGAGGAUCACCCAUGUUAUACUUACAGAAGGUGCGUAAUUUU [Excl-NG2-LRO01] (Eterna round: R96, puzzle: Exclusion NG 2) |  |  |  | apparent KD of MS2 coat protein [2]: 101 nM
3 | UUUCAUCAUGUAGGAUAUGCGUGGCGAAGCUAUGCAGAAGGACAUGAGGAUCACCCAUGUUCUUGCGUCUGCGUACAGAUGCAA [JL ENG1 1.34] (Eterna round: R96, puzzle: Exclusion NG 1) |  | 266 nM | 43 nM | apparent KD of MS2 coat protein [2]: 35.5 nM
4 | UUUCUCGUUGUGAGGAUAUCGUUUUUGUCUCGGAUCGAGAAGGCACAUGAGGAUCACCCAUGUUUGUUGUGGUU [JR_BMOE4_Sub089] (puzzle: Brourd's mod of Exclusion 4) | 74.9 nM |  |  | 
5 | UUUCUCUGGGCGUCUUCUUACAUGAGGAUCACCCAUGUUUCGCAGGAUAUGCUAUAGUGUUAGAUGCAGAAGGGCGUUUGUUUU [JR_ExcNG3_Sub079] (Eterna round: R96, puzzle: Exclusion NG 3) |  | 262 nM | 92.5 nM | apparent KD of MS2 coat protein [2]: 85.8 nM
6 | UUUCUUGGGCAAGGAUAUCCUGUGCGGUUCCGGCUCGUGUCUGUCACAUGAGGAUCACCCAUGUGGGAGAAGGUGCCUGCGGUC [Design 82] (Eterna round: R96, puzzle: Exclusion NG 2) |  | 14.4 nM | 14.9 nM | apparent KD of MS2 coat protein [2]: 11.2 nM
7 | UUUGUGUCAGGAUAUGAGUCGUAGAACAAUAGUACUACGUCUCAGAAGGGACAUGAGGAUCACCCAUGUGCCUC [Fiskers Ex 4 Super Stable 44 mod 27] (puzzle: Exclusion 4) | 34.9 nM |  |  | 
8 | UUUUAACAUGAGGAUCACCCAUGUGAGGAUAUCGAAAUUUAUAUUAAUAUUAAUUUUACGAGAAGGCACAUUUU [JMF 34] (puzzle: Exclusion 1) | 94.6 nM |  |  | 
9 | UUUUAACAUGAGGAUCACCCAUGUGAGGAUAUCGAAAUUUAUAUUAAUAUUAAUUUUUCGAGAAGGCACAUUUU [JMF 33] (puzzle: Exclusion 1) | 143 nM |  |  | 
10 | UUUUAACAUGAGGAUCACCCAUGUGAGGAUAUCGAAAUUUAUAUUAAUAUUUAUUAAUCGAGAAGGCACAUUUU [JMF 60] (puzzle: Exclusion 1) | 100 nM |  |  | 
11 | UUUUAACAUGAGGAUCACCCAUGUGAGGAUAUCGAAAUUUAUAUUAAUAUUUAUUUAACGAGAAGGCACAUUUU [JMF 63] (puzzle: Exclusion 1) | 93.2 nM |  |  | 
12 | UUUUAACAUGAGGAUCACCCAUGUGAGGAUAUCGAAAUUUAUAUUAAUAUUUAUUUUUCGAGAAGGCACAUUUU [JMF 65] (puzzle: Exclusion 1) | 157 nM |  |  | 
13 | UUUUAACAUGAGGAUCACCCAUGUGAGGAUAUCGAAAUUUAUAUUAAUAUUUUUAAUACGAGAAGGCACAUUUU [JMF 70] (puzzle: Exclusion 1) | 49.6 nM |  |  | 
14 | UUUUAACAUGAGGAUCACCCAUGUGAGGAUAUCGUUAUUUAUAUUAAUAUUAAUAAAACGAGAAGGCACAUUUU [JMF 6] (puzzle: Exclusion 1) | 117 nM |  |  | 
15 | UUUUAACAUGAGGAUCACCCAUGUGAGGAUAUCGUUUUUUUUAUUAAUAUUAAUAAAACGAGAAGGCACAUUUU [JMF 18] (puzzle: Exclusion 1) | 140 nM |  |  | 
16 | UUUUACAUAGGAUAUAGUUUGUUGUACAUGAGGAUCACCCAUGUUUUUGGUUGUGCUUUUCUAGAAGGAUGUUUCU [JR_E5_Sub015] (puzzle: Exclusion 5) | 43.8 nM |  |  | 
17 | UUUUAGACAGGAUAUACAUUUUUUUAUUUAUUUAUAAUAUUACAUGAGGAUCACCCAUGUAGAAGGGUCAUUUU [My Design] (puzzle: Exclusion 2) | 37.1 nM |  |  | 
18 | UUUUAGUCAGGAUAUACAUGAGGAUCACCCAUGUAAAAUUUUAAUUUAAUUUGAAGGUGUAGAAGGGACAAUUU [Ex3 #39] (Eterna round: R97, puzzle: Exclusion 3) |  | 22.7 nM | 35.8 nM | 

Row | Sequence | apparent KD of MS2 coat protein [1] | apparent KD of MS2 coat protein (input ligand: FMN 200 uM) | apparent KD of MS2 coat protein (input ligand: none) | further results
19 | UUUUAGUCAGGAUAUACAUGAGGAUCACCCAUGUAAAAUUUUAAUUUAAUUUUAAGGUGUAGAAGGGACAUUUU [Ex3 #5] (Eterna round: R97, puzzle: Exclusion 3) |  | 24.5 nM | 27.6 nM | 
20 | UUUUAGUCAGGAUAUACAUGAGGAUCACCCAUGUAAAAUUUUAAUUUAAUUUUAAGGUGUAGAAGGGACCACCC [Ex3 #14] (Eterna round: R97, puzzle: Exclusion 3) |  | 31.2 nM | 35.5 nM | 
21 | UUUUCGUAAGGAUAUGGUUAGAUCUACGAAAGUAGAUCUAACCAGAAGGUACAUGAGGAUCACCCAUGUUGAUA [Mod of Brourd 21 - Jieux - Exclusion 4] (Eterna round: R97, puzzle: Exclusion 4) |  | 32 nM | 22.5 nM | 
22 | UUUUCUUUUGUGAGGAUAUACUUGUUUUUUUUUUUGUAGAAGGCACAUGAGGAUCACCCAUGUUUUCUUUCCUG [JR_BME4_Sub025] (puzzle: Brourd's mod of Exclusion 4) | 20.1 nM |  |  | 
23 | UUUUGGCAGGCUAUUAUUAACAUGAGGAUCACCCAUGUGCAUCCAAAAUUACUUUUAGAUCUUGCUGGUCUUAUAUA [JR_STOV1_Sub085] (Eterna round: R97, puzzle: Sensor, turn-off variant 1) |  | 284 nM | 330 nM | 
24 | UUUUUAAAUGAAGGAUAUACUUAACAUGAGGAUCACCCAUGUGGUGUUGUGAGUGAGUGAGUUUAGUAGAAGGUCAAUUAUUUU [JMF's solution 20] (Eterna round: R96, puzzle: Exclusion NG 2) |  | 1020 nM | 288 nM | apparent KD of MS2 coat protein [2]: 287 nM
25 | UUUUUACAUGAGGAUCACCCAUGUCAGGAUAUGAUUAUAUUUUAUUAUUUUAUUUUUUUCAGAAGGGACUAUUA [My solution] (puzzle: Exclusion 1) | 80.6 nM |  |  | 
26 | UUUUUAGAUGAAGGAUAUACUUAACAUGAGGAUCACCCAUGUGGUGUUGUGAGUGAGUGAGUUUAGUAGAAGGUCAAUUCUUUU [JMF's solution 87] (Eterna round: R96, puzzle: Exclusion NG 2) |  | 566 nM | 346 nM | apparent KD of MS2 coat protein [2]: 311 nM
27 | UUUUUAUAUGAAGGAUAUACUUAACAUGAGGAUCACCCAUGUGGUGUUGUGAGUGAGUGAGUUUAGUAGAAGGUCAAGUAUUUG [JMF's solution 42] (Eterna round: R96, puzzle: Exclusion NG 2) |  | 689 nM | 342 nM | apparent KD of MS2 coat protein [2]: 204 nM
28 | UUUUUAUAUGAAGGAUAUACUUAACAUGAGGAUCACCCAUGUGGUGUUGUGAGUGAGUGAGUUUAGUAGAAGGUCAAGUAUUUU [JMF's solution 8] (Eterna round: R96, puzzle: Exclusion NG 2) |  | 431 nM | 431 nM | apparent KD of MS2 coat protein [2]: 265 nM
29 | UUUUUAUAUGAAGGAUAUACUUAACAUGAGGAUCACCCAUGUGGUGUUGUGAGUGAGUGAGUUUAGUAGAAGGUCAAUGAUUUA [JMF's solution 62] (Eterna round: R96, puzzle: Exclusion NG 2) |  | 1210 nM | 354 nM | apparent KD of MS2 coat protein [2]: 414 nM
30 | UUUUUAUAUGAAGGAUAUACUUAACAUGAGGAUCACCCAUGUGGUGUUGUGAGUGAGUGAGUUUAGUAGAAGGUCAAUUAUUUC [JMF's solution 17] (Eterna round: R96, puzzle: Exclusion NG 2) |  | 537 nM | 549 nM | apparent KD of MS2 coat protein [2]: 292 nM
31 | UUUUUCAGGCCAGAUCCUCACAUGAGGAUCACCCAUGUGCUCGUCUGUUUUCGCUCUGUCUUUUUUUUGGUGGUGCU [Level Boss var2-20] (puzzle: Sensor v3, turn-off variant 1) | 26.7 nM |  |  | apparent KD of MS2 coat protein [3]: 177 nM; apparent KD of MS2 coat protein [4]: 178 nM
32 | UUUUUCGAACAAGCUUCGUACAUGAGGAUCACCCAUGUUUUUAGAUUUGAGUAGGUUUGUAUGGAAGUUCGUCUUAU [JR_SV3TOV1_Sub087] (puzzle: Sensor v3, turn-off variant 1) | 159 nM |  |  | apparent KD of MS2 coat protein [3]: 32.3 nM; apparent KD of MS2 coat protein [4]: 34.3 nM
33 | UUUUUGUGAGGAUAUCAGUAGUAAAAAAAUAAAAUUACUACUGAGAAGGCACAUGAGGAUCACCCAUGUUCUUU [salish99_ex4_r3_012] (puzzle: Exclusion 4) | 18.4 nM |  |  | 
34 | UUUUUUGUUUUUUUUACAAGCUUUUUGCUCGUCUUAUUAACAUGAGGAUCACCCAUGUCAAAGAGACCUCAUGUAUU [Sensor v3 - turn-off variant 2 - 1] (puzzle: Sensor v3, turn-off variant 2) | 15.7 nM |  |  | apparent KD of MS2 coat protein [3]: 91.2 nM; apparent KD of MS2 coat protein [4]: 207 nM
35 | UUUUUUUUGCUGGUUUUUUACAUGAGGAUCACCCAUGUCCUCUGCUUGUCUUGUGUUGUGCUGGUUUCUGGUGCGGC [Revision to "-18.4 -40.2 kcal, A 8%"by Sellena] (Eterna round: R97, puzzle: Sensor, turn-off variant 1) |  | 428 nM | 1210 nM | 
